Data as given in patent US20130115678.
Numbering of substitutions follows the chain as printed.

Columns and labels:
Assay in all cases: cleavage_in_vitro
[1] = tested on: T1, AvrII (Anabaena variabilis); conditions: NEB4, 37 C, Mg2+; FI NEB1-3: 64, 8, 32
T1 sequence: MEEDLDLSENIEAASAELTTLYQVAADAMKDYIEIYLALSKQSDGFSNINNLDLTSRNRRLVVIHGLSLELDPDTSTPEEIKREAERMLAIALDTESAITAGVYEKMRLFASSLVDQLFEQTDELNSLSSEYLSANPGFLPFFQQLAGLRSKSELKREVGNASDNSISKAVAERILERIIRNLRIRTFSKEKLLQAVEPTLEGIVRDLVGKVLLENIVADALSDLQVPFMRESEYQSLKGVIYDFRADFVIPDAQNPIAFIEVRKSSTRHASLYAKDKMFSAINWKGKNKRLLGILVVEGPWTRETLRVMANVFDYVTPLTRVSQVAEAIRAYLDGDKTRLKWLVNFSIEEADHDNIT

[2] = tested on: T2, AvrII-HF Y104F (Anabaena variabilis); conditions: NEB4, 37 C, Mg2+; FI NEB1-3: 500, >=500, >=16
T2 sequence: T1 sequence with Y104F

[3] = tested on: T3, BspQI-HF K279P/R388F (Bacillus sphaericus); conditions: NEB4, 50 C, Mg2+; FI NEB1-3: >=1000, >=1000, >=64
T3 sequence: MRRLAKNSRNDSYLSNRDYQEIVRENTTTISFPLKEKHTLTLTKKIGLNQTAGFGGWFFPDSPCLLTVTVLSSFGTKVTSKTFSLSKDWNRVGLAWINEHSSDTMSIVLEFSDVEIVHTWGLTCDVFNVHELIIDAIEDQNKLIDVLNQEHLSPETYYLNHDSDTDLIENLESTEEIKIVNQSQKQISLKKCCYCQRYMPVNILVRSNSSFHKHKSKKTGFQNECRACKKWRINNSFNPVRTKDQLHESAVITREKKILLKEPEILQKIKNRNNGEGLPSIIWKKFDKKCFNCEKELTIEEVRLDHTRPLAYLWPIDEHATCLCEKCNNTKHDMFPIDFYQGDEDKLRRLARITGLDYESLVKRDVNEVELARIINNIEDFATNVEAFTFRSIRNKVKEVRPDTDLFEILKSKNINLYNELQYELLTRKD

PvuII (Proteus vulgaris) = target: T4, PvuII (Proteus vulgaris) (UniProt P23657); conditions: NEB4, 37 C, Mg2+; FI NEB1-3: 250, 16, 8
T4 sequence: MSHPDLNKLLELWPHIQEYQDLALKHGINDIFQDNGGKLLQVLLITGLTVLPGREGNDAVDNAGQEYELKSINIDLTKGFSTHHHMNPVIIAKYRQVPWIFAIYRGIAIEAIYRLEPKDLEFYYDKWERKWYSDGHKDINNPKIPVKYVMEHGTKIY

[4] = target: T5, PvuII-HF T46G (Proteus vulgaris) (UniProt P23657); conditions: NEB4, 37 C, Mg2+; FI NEB1-3: >=250, >=2000, >=250
T5 sequence: T4 sequence with T46G

[5] = target: T6, SalI (Streptomyces albus G) (UniProt Q53608); conditions: NEB4, 37 C, Mg2+; FI NEB1-3: 8, 1, 32
T6 sequence: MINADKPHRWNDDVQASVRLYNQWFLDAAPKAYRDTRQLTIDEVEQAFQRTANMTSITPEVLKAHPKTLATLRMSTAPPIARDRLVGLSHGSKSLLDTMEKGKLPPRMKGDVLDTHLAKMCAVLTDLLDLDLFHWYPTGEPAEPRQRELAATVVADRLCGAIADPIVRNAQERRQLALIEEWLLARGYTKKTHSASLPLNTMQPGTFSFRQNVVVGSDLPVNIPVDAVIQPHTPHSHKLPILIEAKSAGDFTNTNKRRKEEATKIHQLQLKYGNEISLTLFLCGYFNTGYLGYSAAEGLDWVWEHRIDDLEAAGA

[6] = target: T7, SalI-HF R107A (Streptomyces albus G) (UniProt Q53608); conditions: NEB4, 37 C, Mg2+; FI NEB1-3: >=8000, >=64000, >=4000
T7 sequence: T6 sequence with R107A

T7 DNA
activity (fidelity index) [1]: 32 | activity (fidelity index) [2]: > 1000

pUC19
activity (fidelity index) [3]: > 4000

pBR322
activity (fidelity index) (PvuII (Proteus vulgaris)): 0.25 | activity (fidelity index) [4]: 500

HindIII-digested lambda DNA
activity (fidelity index) [5]: 1 | activity (fidelity index) [6]: > 32000
